Assay results published in US11208498B2, “Treatment and prevention of cancer using HER3 antigen-binding molecules” (Hummingbird Bioscience Holdings Pte. Ltd., priority 2019, dated 2021).

Key:
human HER3 = human HER3 (Homo sapiens, UniProt P21860); test: Global affinity study by Bio-Layer Interferometry (Octet QK384); assay type: binding; details: HER3 unbound, 'closed' conformation
Protocol: The anti-HER3 antibody clones in IgG1 format were analysed for binding affinity to human HER3.
Bio-Layer Interferometry (BLI) experiments were performed using the Octet QK384 system (ForteBio). anti-Human IgG Capture (AHC) Octet sensor tips (Pall ForteBio, USA) were used to anti-HER3 antibodies (25 nM). All measurements were performed at 25° C. with agitation at 1000 rpm. […] Sensograms were referenced for buffer effects and then fitted using the Octet QK384 user software (Pall ForteBio, USA).
(§1) Binding of anti-HER3 antibodies to human HER3 was evaluated by BLI. Briefly, anti-Human IgG Capture (AHC) sensors (ForteBio) were loaded with anti-HER3 IgG antibodies (25 nM). Kinetic measurements were performed in absence or presence of NRG1. NRG1 was used at 1:1 molar ratio with HER3 wherein the complex was allowed to form at RT for 2 h. His-tagged human HER3 or HER3-NRG1 complexes were loaded to antibody coated AHC sensors at different concentrations for 120 s, followed by a 120 s dissociation time. All measurements were performed at 25° C. with agitation at 1000 rpm. Sensorgrams were referenced for buffer effects and then analyzed using the Octet QK384-software (ForteBio). Kinetic responses were globally fitted using a one-site binding model to obtain values for association (Kon), dissociation (Koff) rate constants and the equilibrium dissociation constant (KD).

[1] = molecular target: human HER3: human NRG1 complex (Homo sapiens, UniProt P21860); test: BLI binding to HER3 in ligand-bound 'open' conformation; details: NRG1 at 1:1 molar ratio with HER3
Protocol: In further experiments, anti-HER3 antibodies were analysed in order to determine the affinity of binding to human HER3 in the context of a human HER3: human NRG1 complex (that is, HER3 provided in the ligand-bound, ‘open’ conformation), as compared to the affinity of binding to human HER3 in the absence of NRG1 complex (that is, HER3 provided in the unbound, ‘closed’ conformation).
as §1

human EGFR = molecular target: T1, human EGFR (Homo sapiens, UniProt P00533); test: ELISA for antibody specificity: human EGFR (HER1); assay type: binding
T1 construct: purchased Sino Biological Inc., China
Protocol: ELISAs were used to determine the binding specificity of the antibodies. The antibodies were analysed for binding to human HER3 polypeptide, as well as respective mouse, rat and monkey homologues of HER3 (Sino Biological Inc., China). The antibodies were also analysed for their ability to bind to human EGFR and human HER2 (Sino Biological Inc., China).
ELISAs were carried out according to standard protocols. Briefly, 96-well plates (Nunc, Denmark) were coated with 0.1 μg/ml of target polypeptide in phosphate-buffered saline (PBS) for 16 h at 4° C. After blocking for 1 h with 1% BSA in Tris buffer saline (TBS) at room temperature, the anti-HER3 antibody was serially diluted with the highest concentration being 10 μg/ml, and added to the plate. Post 1 h incubation at room temperature, plates were washed three times with TBS containing 0.05% Tween 20 (TBS-T) and were then incubated with a HRP-conjugated anti-His antibody (Life Technologies, Inc., USA) for 1 h at room temperature. […] The reaction was stopped with 2M H2SO4, and OD was measured at 450 nm.
The antibodies were analysed for their ability to bind to human HER3 polypeptide as well as human HER1 (EGFR) and human HER2 (Sino Biological Inc., China). […]
ELISAs were carried out according to standard protocols. […] The reaction was stopped with 2M […], and OD was measured at 450 nm.

[2] = test system: intracellular signalling pathways in FaDu cells; test: Phosphoprotein Antibody Array, FaDu cells; assay type: cell-based; details: 50 μg/ml antibody 4 hrs, NRG 100 ng/ml 15 min
Protocol: In further experiments the inventors investigated the intracellular signalling pathways affected by anti-HER3 antibody-mediated inhibition of HER3.
FaDu cells were seeded in wells of a 6 well plate with 10% serum at 37° C., 5% CO2. After 16 hrs, cells were starved by culture overnight in 1% FBS cell culture medium. On the following day cells were treated with 50 μg/ml anti-HER3 antibody 10D1 for 4 hrs, followed by 15 min stimulation with NRG (100 ng/ml). Proteins were then extracted, quantified using standard Bradford protein assay, and incubated overnight with pre-blocked Phosphoprotein Antibody Array membrane (Ray Biotech) at 4° C. The membrane was then washed with washing buffer and incubated with detection antibody cocktail for 2 hrs at room temperature, followed by washing and incubation with HRP-Conjugated anti-IgG. After 2 hrs the membrane was washed and probed using the kit detection buffer. Images were captured with Syngene Gbox imaging system, the intensity of each dot/phosphoprotein was measured and percent inhibition was calculated by comparison with intensity measured for cells treated in the same way in the absence of the antibody.

His-tagged human HER3 = His-tagged human HER3 (Homo sapiens, UniProt P21860); test: BLI competition between anti-HER3 antibodies for binding to HER3
Protocol: Bio-Layer Interferometry (BLI) experiments were performed using the Octet QK384 system (ForteBio). anti-Penta-HIS (HIS1K) coated biosensor tips (ForteBio, USA) were used to capture His-tagged human HER3 (75 nM; 300 s). […] The variable region of LJM-716 antibody was cloned in the PDZ vector having human IgG1 and IgKappa Fc backbone.
BLI experiments were performed as described in Example 3.5 with one alteration: 400 nM of competing antibodies were used. The variable regions of M-05-74 and M-08-11 antibodies were cloned in the PDZ vector having human IgG1 and IgKappa Fc backbone.

[3] = test system: HER3 extracellular domain; test: Epitope mapping with overlapping 15-mer peptides; assay type: binding, human
Protocol: The epitope for 10D1 was mapped using overlapping 15-mer amino acids to cover the entire HER3 extracellular domain. Each unique 15-mer was elongated by a GS linker at C and N-terminals, conjugated to a unique well in 384 well plates, and the plates were incubated with 0.1, 1, 10 and 100 ug/ml of 10D1 antibody for 16 hrs at 4° C. The plates were washed and then incubated for 1 hr at 20° C. with POD-conjugated goat anti-human IgG. Finally POD substrate solution was added to the wells for 20 min. before binding was assessed by measurement of chemiluminescence at 425 nm using a LI-COR Odyssey Imaging System, and quantification and analysis was performed using the PepSlide Analyzer software package. The experiment was performed in duplicate.

**Q.** What does the source list for “LJM716: anti-HER3 antibody clone described in Garner et al., Cancer Res (2013); epitope across domains II and IV [reference compound]”?
**A.** affinity of binding to human HER3 in the absence of NRG1 (human HER3): subpicomolar affinity; affinity of binding to human HER3 in the presence of NRG1 [1]: dramatically reduced

B1: 10D1F: clone with VH SEQ ID NO:36 and VL SEQ ID NO:83; b369 means 10D1F.A, b1087 the mIgG2a format (antibody, V domains shown)
VH: QVQLQESGPGLVKPSQTLSLTCTVSGYSITSGYSWHWIRQHPGKGLEWIGSIRYSGGTDYNPSLKSLVTISADTSKNQFSLKLSSVTAADTAVYYCARMTTAPWYPFDYWGQGTTVTVSS
VL: DIQMTQSPSSVSASVGDRVTITCKASQIVGSNVAWYQQKPGKAPEPLIYSASYLYSGVPSRFSGSGSGTDFTLTISSLQPEDFATYYCQQYSSHPLTFGQGTKLEIK
modifications: 10D1_c89 heavy chain variable region; 10D1_c89 light chain variable region
notes: b369 means 10D1F.A, b1087 the mIgG2a format
**Q.** Which “affinity of binding to human HER3 in the absence of NRG1” value (human HER3) does the source give for B1 here?
**A.** The value was “sub-picomolar affinity”.

**Q.** And the “affinity of binding to human HER3 in the presence of NRG1” value [1]?
**A.** Its value is “sub-picomolar affinity”.

B2: 4-35-B2: anti-HER3 antibody clone, VH SEQ ID NO:127, VL SEQ ID NO:135 (antibody, V domains shown)
VH: EIQLQQSGPELVKPGASVKVSCKASGYSFTDYNMYWVKQSHGKSLEWIGHINPYNGGTTYNQKFKGRATLTVDKSSSTAFMHLNSLTSEDSAVYFCVSLRWGAMDYWGQGTSVTVSS
VL: QIVLTQSPALMSASPGEKVTMTCSASSSVSYMYWYQQKPRSSPKPWIYLTSNLASGVPARFSGSGSGTSYSLTISSMEAEDAATYYCQQWNSNPYTFGGGTKLEIK
modifications: 4-35-B2 heavy chain variable region; 4-35-B2 light chain variable region
**Q.** With B2 as the molecule, how does the “binding to human EGFR” value (human EGFR) read?
**A.** Its value is “found to bind”.

B3: 10D1: parental mouse anti-HER3 antibody clone, VH SEQ ID NO:24, VL SEQ ID NO:74, human IgG1 chimeric (antibody, V domains shown)
VH: DVQLQESGPDLVKPSQSLSLTCTVTGYSITSGYSWHWIRQFPGNKLEWMGSIHYSGGTNYNPSLKSRISITRDTSKNQFFLQLNSVTTEDTATYFCARMTTAPRYPFDYWGQGTTLTVSS
VL: DIVMTQSQKFMSTSVGDRVSVTCKASQIVGSNVAWYQQKPGQSPKPLIYSASYRYSGVPDRFTASGSGTDFTLTITNVQSEDLAEYFCQQYSSHPLTFGAGTKLELK
modifications: human IgG1 constant regions; 10D1 heavy chain variable region; 10D1 light chain variable region
**Q.** With B3 as the molecule, how does the “PI3K/AKT/mTOR and MAPK signalling” value [2] read?
**A.** The value was “inhibit PI3K/AKT/mTOR and MAPK signalling”.

**Q.** What about the “epitope of HER3 relative to MM-121 and/or LJM-716” value (His-tagged human HER3) of the same molecule?
**A.** Its value is “distinct and topologically distant epitope”.

**Q.** And the “location of epitope relative to β-hairpin of HER3 dimerisation arm” value [3]?
**A.** The value was “at a dimerisation interface N-terminal to the β-hairpin”.

**Q.** What about the “site of HER3 bound” value ([3]; positions of human HER3 SEQ ID NO:1, region SEQ ID NO:229) of the same molecule?
**A.** The value was “positions 218 to 235”.
